Here are results for two molecules from patent publication US20100009390A1, “MUTANT ANTIBODIES WITH HIGH AFFINITY FOR EGFR” (THE REGENTS OF THE UNIVERSITY OF CALIFORNIA, priority 2008, published 2010).

One experiment addresses T1, biotinylated EGFR-ECD (Homo sapiens, UniProt P00533).
T1 construct: Recombinant EGFR-ECD was expressed in HEK293 cells; biotin (chemical label, NHS-sulfo-LC-biotin on amines); made in house; host or cells: HEK293 cells
Kind of experiment: Yeast-displayed scFv affinity for biotinylated EGFR-ECD by flow cytometry. In kind it is binding. Conditions: concentrations as high as 8 μM. Here is the method: Generally, six to eight different concentrations of biotinylated EGFR were used to span a range of concentrations from ten times above to ten times below the KD. Incubation volumes, times and yeast numbers were chosen to ensure that the studies were done in at least fivefold antigen excess and that equilibrium had been achieved (Razai et al. (2005) J. Mol. Biol. 351: 158-169). For anti-EGFR scFv, […] in 50 μl were incubated with biotinylated EGFR-ECD for 1 h at room temperature. […] Only yeast displaying scFv (as determined by binding of SV5 mAb) were gated for affinity measurements.
(Flow cytometry measures light scatter and fluorescence of single cells or particles in a stream.)

Experiment [1] deals with T2, MDAMB468 cells expressing EGFR (Homo sapiens, UniProt P00533).
T2 construct: Human breast cancer MDAMB468 cells expressing EGFR; endogenous in cells; host or cells: MDAMB468 breast carcinoma cells
Kind of experiment: Immunoliposome binding affinity for cells expressing EGFR (flow cytometry). Conditions: read-out: Apparent KD of immunoliposomes. The procedure:
Human breast cancer MDAMB468 cells expressing EGFR were grown to 80-90% confluence in L15 medium supplemented with 10% FBS and harvested by trypsinization. ILs labeled with DiIC18(3)-DS were incubated overnight with 10^4 cells at concentrations of IL ranging from 0.31-2.5 nM. The concentration of IL was converted from the concentration of phospholipid on the basis of the approximate number of phospholipid molecules per liposome (80,000). Cell binding was performed at 4° C. in FACS buffer in adequate volume to ensure a fivefold excess of ILs and that the reaction had come to equilibrium. After two washes with 200 μl of FACS buffer, the amount of cell-bound ILs was quantified by flow cytometry in a FACS LSRII (Becton Dickinson). Data analysis was the same as for the measurement of scFv KD.

Experiment [2] has as its system EGFR-over-expressing MDAMB468 cells. Description: Internalization/uptake of anti-EGFR immunoliposomes (microscopy, flow cytometry). The experiment is classed as cell-based, Human. The conditions noted are these: for endocytosis of ILs by fluorescence microscopy: MDAMB468. Here is the method:
(§1) scFv-mediated internalization of fluorescent immunoliposomes was analyzed and quantified by microscopy and flow cytometry. C10 scFv fragments were inserted into liposomes at ratios of 5, 10, 15, 30 and 60 μg scFv/μmol phospholipid (Mamot et al. (2003) Cancer Res. 63: 3154-3161). scFv densities of 16, 32, 48, 96 and 192 scFv/liposome were calculated on the basis of the molecular mass of scFv (26 kDa) and the approximate number of phospholipid molecules/liposome (80,000). The conjugation technology for scFv to Mal-PEG-DSPE is remarkably reproducible with an efficiency of 77.3(±3.1) % (range 75-82% over six batches) (Nellis et al. (2005) Biotechnol. Prog. 21: 205-220). […] For microscopy studies, 150,000 cells were incubated with 50 μM PL of untargeted and EGFR-targeted ILs labeled with DiIC18(3)-DS in a 12-well plate for 2 h at 37° C., followed by washing with PBS and further incubation at 37° C. for 2 h. The cells were then analyzed by using an inverted fluorescence microscope (Nikon Eclipse, TE300) with a 540/25 nm band-pass filter for excitation and a long-pass filter at 565 nm for emission. For quantitative uptake of immunoliposomes, 250,000 cells were incubated with EGFR-targeted ILs labeled with ADS645 in a six-well plate for 2 h at 37° C., washed with PBS, removed in trypsin solution and fluorescence quantified with a FACSAria instrument (Beckton Dickinson). To determine the effect of EGF competition on internalization of EGFR-targeted ILs, IL internalization was quantified as described above, except that 50 μM targeted ILs and cells were incubated with EGF concentrations ranging from 0.2-25 nM. ANOVA (analysis of variance) was used to analyze the statistical differences of the quantified uptake.

A further experiment relates to MDAMB231 cells. Kind of experiment: Uptake of EGFR immunoliposomes into cells of lower EGFR density. In kind it is cell-based, human. The conditions noted are these: for IL uptake into MDAMB231 cells compared to A431 cells: all scFv densities studied, 480,000 EGFR/cell. Here is the method: as §1
To determine the impact of receptor density on IL uptake, we measured the uptake of the different ILs into MDAMB231 cells which express 480,000 EGFR/cell as determined by flow cytometry using Quantum Simply Cellular anti-Human IgG beads (Bangs Laboratories Inc.). […] Uptake into MDAMB231 cells increased with increasing scFv density, reaching a plateau at an IL scFv density of 74 scFv/IL for P2/4 scFv and at 37 scFv/IL for 2224 scFv (FIG. 6C).

The target in the next experiment is T3, A431 cells (Homo sapiens, UniProt P00533).
T3 construct: endogenous in cells; host or cells: A431 cells
Description: Binding specificity of scFv by flow cytometry. The conditions noted are these: A431, 1×10^6-3×10^6 EGFR/cell.

The next experiment has as its system MDAMB468 cells. Description: Binding specificity of scFv by flow cytometry. Details: species or system Human. Conditions: MDAMB468, 1×10^6-3×10^6 EGFR/cell.
Another experiment concerns MDAMB453 cells. Kind of experiment: Binding specificity of scFv by flow cytometry. Conditions: MDAMB453, only 10^4 EGFR/cell.
The target of experiment [3] is T4, EGFR (vIII) stably transfected NR6M cells (Homo sapiens, UniProt P00533, DELINS30-297G).
T4 construct: expressed in transfected cells; host or cells: NR6M cells (NR6 stably transfected with EGFR (vIII)), gift of Dr Daryl D Bigner
Description: Binding specificity of scFv by flow cytometry. The procedure:
(§2) The binding of C10 scFv and C10 mutants to EGFR (vIII) stably transfected NR6M cells and parental NR6 cells was also measured.

In another experiment the test system is parental NR6 cells. Kind of experiment: Binding specificity of scFv by flow cytometry. Conditions: NR6, EGFR negative. The procedure: as §2
The target of experiment [4] is T5, EGFR-expressing A431 cells (Homo sapiens, UniProt P00533).
T5 construct: host or cells: A431 cells
The conditions noted are these: Heitner et al. (2001); read-out: KD of C10 scFv previously measured on EGFR-expressing tumor cells; cited from earlier work.

Experiment [5] addresses MDAMB468 cells expressing intact EGFR (Homo sapiens, UniProt P00533). Conditions: EGF competition.

“Also recorded” adds a separate entry of the source. Read-outs that look alike come from different tables or passages of the source.

B1: C10: parental (wild-type) internalizing anti-EGFR human scFv from a non-immune phage antibody library; SEQ ID NO:1 (protein)
scFv: EVQLVQSGAEVKKPGSSVKVSCKASGGTFSSYAISWVRQAPGQGLEWMGGIIPIFGTANYAQKFQGRVTITADESTSTAYMELSSLRSEDTAVYYCAREEGPYCSSTSCYGAFDIWGQGTLVTVSS
modifications: Variable chain of single chain antibody.
For the molecule B1, the “binding of yeast-displayed scFv to biotinylated recombinant EGFR” value with biotinylated EGFR-ECD is given as “minimal binding”. For the same molecule, the Kd in [1] (74 scFv/liposome) was 1.75 nM; in experiment [1] (148 scFv/liposome), 0.36 nM; in [4] it was 217 nM. Moreover, the “endocytosis of ILs by fluorescence microscopy” value in [2] (74 scFv/liposome) is given as “endocytosed efficiently”. Besides, in experiment [2] (scFv densities of 74 scFv/liposome or less), the “IL uptake compared to ILs from higher affinity scFv” value is “less uptake”. Further, the “IL uptake into MDAMB231 cells compared to A431 cells” value with MDAMB231 cells is listed as “significantly less uptake”. The “scFv binding/staining of cells” value was “stained” with A431 cells; “stained” in the experiment with MDAMB468 cells; “did not stain” in the experiment with MDAMB453 cells; “strong staining; also recorded: stained” in experiment [3]; “minimal binding; also recorded: did not stain” with parental NR6 cells.

B2: 2224: combined mutant scFv: P2/2 with the VH CDR3 Gly to Ala mutation from P2/4; SEQ ID NO:17 and 24 (protein)
scFv: QSVLTQDPAVSVALGQTVKITCQGDSLRSYLASWYQQKPGQAPTLVTYARNDRPAGVPDRFSGSKSGTSASLAISGLQSEDEADYYCAAWDDSLNGYLFGAGTKLTVL
modifications: Variable chain of single chain antibody.
Take B2: the “difference in IL uptake versus ILs from C10 or P2/4 scFv” value in experiment [2] (74 scFv/liposome, IL 0.63 nM, flow cytometry) is “no statistically significant difference”. Further, in experiment [2] (74 scFv/liposome), the “endocytosis of ILs by fluorescence microscopy” value is “endocytosed efficiently”. Further, in the experiment on MDAMB231 cells, the “IL scFv density at which uptake into MDAMB231 cells reaches a plateau” value is listed as 37 scFv/IL and the “IL uptake into MDAMB231 cells compared to A431 cells” value is “significantly less uptake”. Also, the “IC50 of ILs less than the scFv IC50” value in experiment [5] is reported as 20 fold.
